Patent US5604203A, “Analogs of peptide YY and uses thereof” (University of Cincinnati, priority 1994, dated 1997)
Where two headings read alike, the source gives them in different places. Square brackets hold non-standard residues; d marks the D form. Peptide text beside a SMILES is read from it. Phe(4-Cl) = N[C@@H](Cc1ccc(Cl)cc1)C(=O)O

Legend:
rat jejunal mucosa [1] = experiment: Short circuit current (SCC) in voltage clamped rat jejunal mucosa (antisecretory effect); type: cell-based; conditions: for EC50: Table 1, reduction of baseline SCC, rat jejunum, mean of three separate experiments
Procedure: The antisecretory effects of the peptides were investigated by measuring the short-circuit current (SCC) in rat jejunal mucosa mounted in a Ussing chamber and automatically voltage clamped as described by Cox et al. (J. Physiol. supra). Briefly, strips of mucosa were placed between two halves of perspex Ussing chambers (window size, 0.6 cm^2) containing oxygenated (95% O2 /5% CO2) Krebs-Henseleit solution (NaCl, 117 mM, KCl 4.7 mM, CaCl2, 2.5 mM; MgSO4 1.2 mM, NaHCO3 24.8 mM and glucose 11.1 mM), pH 7.4, 37° C. […] Once a stable baseline SCC was reached, peptides were added to the basolateral reservoir only, and cumulative concentration-response profiles constructed.

[2] = target: T1, intestinal PYY-preferring receptors (Rattus norvegicus, UniProt Q9ERC0); conditions: BINDING IC50 (nM), Table 1; 125I-PYY, rat jejunal membranes; mean of three separate experiments
T1 sequence (Q9ERC0 1-381): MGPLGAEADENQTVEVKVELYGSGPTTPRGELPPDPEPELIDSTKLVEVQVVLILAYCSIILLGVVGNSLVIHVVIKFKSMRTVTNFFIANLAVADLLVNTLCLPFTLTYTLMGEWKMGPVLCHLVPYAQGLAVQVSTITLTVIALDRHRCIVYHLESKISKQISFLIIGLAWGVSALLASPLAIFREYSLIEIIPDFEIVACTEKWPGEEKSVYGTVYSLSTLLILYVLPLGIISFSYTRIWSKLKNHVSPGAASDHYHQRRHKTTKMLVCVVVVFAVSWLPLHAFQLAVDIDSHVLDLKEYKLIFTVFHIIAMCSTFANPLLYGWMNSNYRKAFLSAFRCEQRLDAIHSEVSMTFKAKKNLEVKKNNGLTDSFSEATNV
Procedure: Bound and free peptides were separated by centrifugation at 20,000×g for 10 min.
All points in the binding experiments are the mean of at least three experiments performed in duplicate.

[3] = target: PYY receptor of rat jejunal epithelial plasma membranes (rat)
[4] = target: PYY receptor of rat jejunal epithelial plasma membranes (rat); experiment: competition with 125I-PYY on rat jejunal membranes
[5] = target: PYY receptor of rat jejunal epithelial plasma membranes (rat); experiment: competition with 125I-PYY on rat jejunal epithelial plasma membranes
[6] = target: PYY receptor of rat jejunal epithelial plasma membranes (rat); experiment: competition with 0.05 nM 125I-PYY on rat jejunal epithelial plasma membranes
[7] = target: PYY receptor of rat jejunal epithelial plasma membranes (rat); remark: listed apart in the source
[8] = target: PYY receptor of rat jejunal epithelial plasma membranes (rat); remark: listed apart in the source
[9] = target: PYY receptor of rat jejunal epithelial plasma membranes (rat); experiment: competitive binding, done as described above (125I-PYY, rat jejunal membranes)
rat jejunal mucosa [10] = conditions: Cox et al. Peptides, supra; cited from earlier work

Question: Which EC50 (rat jejunal mucosa [1]) does the source give for `CC(=O)N[C@@H](C)C(=O)N[C@@H](CO)C(=O)N[C@@H](CC(C)C)C(=O)N[C@@H](CCCNC(=N)N)C(=O)N[C@@H](Cc1ccc(Cl)cc1)C(=O)N[C@@H](Cc1ccc(O)cc1)C(=O)N[C@@H](CC(C)C)C(=O)N[C@@H](CC(N)=O)C(=O)N[C@@H](CC(C)C)C(=O)N[C@H](C(=O)N[C@H](C(=O)N[C@@H](CCCNC(=N)N)C(=O)N[C@@H](CCC(N)=O)C(=O)N[C@@H](CCCNC(=N)N)C(=O)N[C@@H](Cc1ccc(O)cc1)C(N)=O)[C@@H](C)O)C(C)C` [N-α-Ac-[p.ClPhe^26]PYY(22-36), N-α-Ac-A S L R [p.Cl.Phe^26] Y L N L V T R Q R] (HELM PEPTIDE1{[ac].A.S.L.R.[O=C([C@H](Cc1ccc(Cl)cc1)N[*:1])[*:2]].Y.L.N.L.V.T.R.Q.R.Y.[am]}$$$$V2.0) here?
Answer: 124 nM

Question: And the IC50 [2]?
Answer: 50 nM

Question: Which “maximal inhibitory response (change in SCC)” value (rat jejunal mucosa [1]; 1.4 μM, n=7) does the source give for “Ac-ASLRHFLNLVTRQRY-NH2 [N-α-Ac-[Phe^27]PYY(22-36)]” here?
Answer: -12.0±1.3 μA/0.6 cm^2

Question: What about the EC50 (rat jejunal mucosa [1]) of the same molecule?
Answer: 15.1 nM

Question: And the “times less potent than the intact hormone (antisecretory potency)” value (rat jejunal mucosa [1]; relative to PYY)?
Answer: 9 times

Question: For “Ac-ASLRHYENLVTRQRY-NH2 [N-α-Ac-[Glu^28]PYY(22-36), N-α-Ac-A S L R H Y [Glu] N L V T R Q R Y--NH2]”, which EC50 (rat jejunal mucosa [1]) is on record?
Answer: 3000 nM

Question: What about the IC50 [2] of the same molecule?
Answer: 44.7 nM

Question: With N-α-Ac-PYY(22-36) (peptide) as the molecule, how does the SCC EC50 [3] read?
Answer: 40 nM

Question: What about the IC50 [4] of the same molecule?
Answer: 0.08 nM

Question: And the fold increase of receptor affinity against PYY(22-36) [5]?
Answer: 4 times

Question: And the IC50 [6]?
Answer: 1.12 nM

Question: With “N-α-naphthaleneacetyl-PYY(22-36) (peptide)” as the molecule, how does the SCC EC50 [3] read?
Answer: 19500 nM

Question: What about the SCC EC50 [7] of the same molecule?
Answer: > 30000 nM

Question: For PYY (peptide YY) (ligand), which SCC EC50 [3] is on record?
Answer: 1.7 nM

Question: And the maximal inhibitory response of SCC [8]?
Answer: -12.6 µA/0.6 cm^2

Question: What about the SCC EC50 of PYY after treatment of the tissue with the analog (1 µM) [7] of the same molecule?
Answer: 4.4 nM

Question: And the SCC EC50 of PYY, nontreated controls [7]?
Answer: 2.6 nM

Question: And the IC50 [4]?
Answer: 0.04 nM

Question: And the IC50 [6]?
Answer: 0.2 nM

Question: What about the IC50 [9] of the same molecule?
Answer: 0.1 nM

Question: With [Pro^34 ]NPY: Y-1 selective agonist as the molecule, how does the “sensitivity of rat jejunal epithelial receptors to agonist” value (rat jejunal mucosa [10]) read?
Answer: completely insensitive

Question: With Ac-YSLRHFLNLVTRQRY-NH2 [N-α-Ac-[Tyr^22, Phe^27 ]PYY(22-36)] as the molecule, how does the IC50 [9] read?
Answer: 0.1 nM

Question: Which SCC EC50 [3] does the source give for Ac-ASLRHYENLVTRQRY-NH2 [N-α-Ac-[Glu^28 ]PYY(22-36)] here?
Answer: 3000 nM

Question: And the IC50 [6]?
Answer: 44.7 nM

Question: For FSLRHFLNLVTRQRY (not fully specified; N-terminal acetyl; C-terminal amide) [N-α-Ac-[Phe^22,27 ]PYY(22-36)], which IC50 [9] is on record?
Answer: 11.2 nM

B1: N-α-Ac-[Thz^26, Phe^27 ]PYY(22-36) (peptide)
peptide: ASLRXFLNLVTRQRY
HELM: PEPTIDE1{[ac].A.S.L.R.[O=C([C@H](Cc1cscn1)N[*:1])[*:2]].F.L.N.L.V.T.R.Q.R.Y.[am]}$$$$V2.0
SMILES: CC(=O)N[C@@H](C)C(=O)N[C@@H](CO)C(=O)N[C@@H](CC(C)C)C(=O)N[C@@H](CCCNC(=N)N)C(=O)N[C@@H](Cc1cscn1)C(=O)N[C@@H](Cc1ccccc1)C(=O)N[C@@H](CC(C)C)C(=O)N[C@@H](CC(N)=O)C(=O)N[C@@H](CC(C)C)C(=O)N[C@H](C(=O)N[C@H](C(=O)N[C@@H](CCCNC(=N)N)C(=O)N[C@@H](CCC(N)=O)C(=O)N[C@@H](CCCNC(=N)N)C(=O)N[C@@H](Cc1ccc(O)cc1)C(N)=O)[C@@H](C)O)C(C)C
Question: For B1, which IC50 [9] is on record?
Answer: 4.5 nM

Question: With Ac-ASLRH[Phe(4-Cl)]LNLVTRQRY-NH2 [N-α-Ac-[Pcp^27 ]PYY(22-36)] as the molecule, how does the IC50 [9] read?
Answer: 1.58 nM

Question: For Ac-ASLRHFLNLVTRQRY-NH2 [N-α-Ac-[Phe^27 ]PYY(22-36)], which SCC EC50 [3] is on record?
Answer: 15.1 nM

Question: And the antisecretory potency against PYY (times less potent than PYY) [8]?
Answer: 9

Question: And the maximal inhibitory response of SCC [8]?
Answer: -12 µA/0.6 cm^2

Question: What about the percent increase of receptor affinity against N-α-Ac-PYY(22-36) [5] of the same molecule?
Answer: 28%

Question: And the IC50 [6]?
Answer: 0.8 nM

B2: N-α-Ac-[p.ClPhe^26 ]PYY(22-36) (peptide)
peptide: ASLRXYLNLVTRQRY
HELM: PEPTIDE1{[ac].A.S.L.R.[O=C([C@H](Cc1ccc(Cl)cc1)N[*:1])[*:2]].Y.L.N.L.V.T.R.Q.R.Y.[am]}$$$$V2.0
SMILES: CC(=O)N[C@@H](C)C(=O)N[C@@H](CO)C(=O)N[C@@H](CC(C)C)C(=O)N[C@@H](CCCNC(=N)N)C(=O)N[C@@H](Cc1ccc(Cl)cc1)C(=O)N[C@@H](Cc1ccc(O)cc1)C(=O)N[C@@H](CC(C)C)C(=O)N[C@@H](CC(N)=O)C(=O)N[C@@H](CC(C)C)C(=O)N[C@H](C(=O)N[C@H](C(=O)N[C@@H](CCCNC(=N)N)C(=O)N[C@@H](CCC(N)=O)C(=O)N[C@@H](CCCNC(=N)N)C(=O)N[C@@H](Cc1ccc(O)cc1)C(N)=O)[C@@H](C)O)C(C)C
Question: With B2 as the molecule, how does the SCC EC50 [3] read?
Answer: 124 nM

Question: And the IC50 [6]?
Answer: 50 nM
